Test results published in US20140348834A1 (published 2014).
Read-outs that look alike come from different tables or passages of the source.

T1: rat IL-17A (rat, UniProt Q61453 18-150, limits assumed)
T1 construct: Purified recombinant protein in SPR
T1 sequence (looked up): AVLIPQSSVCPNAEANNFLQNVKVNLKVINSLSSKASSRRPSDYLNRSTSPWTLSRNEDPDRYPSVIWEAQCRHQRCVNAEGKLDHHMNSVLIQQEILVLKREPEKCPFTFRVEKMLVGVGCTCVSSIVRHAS

T2: mouse IL-17A (mouse, UniProt Q62386 26-158, limits assumed)
T2 construct: Purified recombinant protein in SPR; also called MuIL-17A; murine IL-17A
T2 sequence (looked up): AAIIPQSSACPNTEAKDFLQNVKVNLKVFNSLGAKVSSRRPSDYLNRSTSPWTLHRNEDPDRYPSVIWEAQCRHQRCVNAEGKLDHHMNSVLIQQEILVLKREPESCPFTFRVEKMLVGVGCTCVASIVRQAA

B1: ML109-6C6 (antibody, V domains shown)
VH: QVQLQQSGAELVRPGASVKLSCKASGYTFSDYEIHWVKQTPVHGLAWIGVIHPGNGGTAYNQKFKDKATLTADKSSSTAYMELSSLTSEDSAVYYCERFLTYEGYFDYWGQGTTLTVSS
VL: SIVMTQTPKFLLVSAGDRVTITCKASQSVNNDVAWYQHKPGQSPKLLINYASNRYTGVPDRFTGSGYGTDFTFTISTVQAEDLAIYFCQQDYGSPYTFGGGTKLEIKR
notes: Hybridoma-derived murine mAb; also called 6C6.3B4
B2: IL17-h10F7.6 (antibody, V domains shown)
VH: EVQLVQSGAEVKKPGSSVKVSCKASGYTFTDYEIHWVRQAPGQGLEWIGVNDPESGGTFYNQKFDGRATLTADKSTSTAYMELSSLRSEDTAVYYCTRYYRYESFYGMDYWGQGTTVTVSS
VL: DIQLTQSPSSLSASVGDRVTITCSASSSISYIYWFQQKPGKSPKRWIYATFELASGVPSRFSGSGSGTDYTLTISSLQPEDFATYYCHQRSSYPWTFGQGTKLEIKR
notes: IgG; constant regions not specified; also called h10F7.6 (VH.1a-Vk.1a)
B3: IL17-h10F7.11 (antibody, V domains shown)
VH: EVQLVQSGAEVKKPGSSVKVSCKASGYTFTDYEIHWVRQAPGQGLEWIGVNDPESGGTFYNQKFDGRATLTADKSTSTAYMELSSLRSEDTAVYYCTRYYRYESFYGMDYWGQGTTVTVSS
VL: EIVLTQSPDFQSVTPKEKVTITCSASSSISYIYWFQQKPDQSPKRWIYATFELASGVPSRFSGSGSGTDYTLTINSLEAEDAATYYCHQRSSYPWTFGQGTKLEIKR
notes: IgG; constant regions not specified; also called h10F7.11 (VH.1a-Vk.2a)

Experiments:
rat IL-17A [1] = biological target: T1, rat IL-17A; test: SPR (Biacore 3000), antibody captured by anti-Fc, antigen in solution
Method: (§1) The binding of antibodies to purified recombinant human, cyno, rat, mouse, rabbit IL-17 and human IL-17A/F were determined by surface plasmon resonance-based measurements with a Biacore® 3000 instrument (Biacore® AB, Uppsala, Sweden) using running HBS-EP (10 mM HEPES [pH 7.4], 150 mM NaCl, 3 mM EDTA, and 0.005% surfactant P20) at 25° C. […] Approximately 5000 RU of goat anti-mouse or anti-human IgG (Fcγ) fragment specific polyclonal antibody (Pierce Biotechnology Inc, Rockford, Ill.) diluted in 10 mM sodium acetate (pH 4.5) was directly immobilized across a CM5 research grade biosensor chip using a standard amine coupling kit according to manufacturer's instructions and procedures at 25 μg/ml. Unreacted moieties on the biosensor surface were blocked with ethanolamine. Modified carboxymethyl dextran surface in flowcell 2 and 4 was used as a reaction surface. Unmodified carboxymethyl dextran without goat anti-mouse or anti-human IgG in flow cell 1 and 3 was used as the reference surface. For kinetic analysis, rate equations derived from the 1:1 Langmuir binding model were fitted simultaneously to association and dissociation phases of all eight injections (using global fit analysis) with the use of Biaevaluation 4.0.1 software. Purified antibodies were diluted in HEPES-buffered saline for capture across goat anti-mouse or anti-human IgG specific reaction surfaces. Antibodies to be captured as a ligand (25 μg/ml) were injected over reaction matrices at a flow rate of 5 μl/min. The association and dissociation rate constants, kon (unit M-1s-1) and koff (unit s-1) were determined under a continuous flow rate of 25 μl/min. Rate constants were derived by making kinetic binding measurements at ten different antigen concentrations ranging from 10 nM to 200 nM. The equilibrium dissociation constant (unit M) of the reaction between antibodies and recombinant purified IL-17 antigens was then calculated from the kinetic rate constants by the following formula: KD=koff/kon. Binding was recorded as a function of time and kinetic rate constants are calculated. In this assay, on-rates as fast as 10⁶ M⁻¹ s⁻¹ and off-rates as slow as 10⁻⁶ s⁻¹ can be measured.

human IL-17A/F [2] = biological target: T3, human IL-17A/F (human, UniProt Q16552 24-155; Q96PD4 31-163); test: as above
T3 construct: Recombinant; biotinylated in the ELISA; also called hIL-17A/F; HuIL-17A/F
T3 sequence (Q16552 24-155, chain 1 of 2): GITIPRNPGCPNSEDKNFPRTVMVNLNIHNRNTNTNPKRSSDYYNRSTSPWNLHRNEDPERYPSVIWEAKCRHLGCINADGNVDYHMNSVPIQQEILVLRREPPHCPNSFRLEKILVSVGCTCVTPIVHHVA
T3 sequence (Q96PD4 31-163, chain 2 of 2): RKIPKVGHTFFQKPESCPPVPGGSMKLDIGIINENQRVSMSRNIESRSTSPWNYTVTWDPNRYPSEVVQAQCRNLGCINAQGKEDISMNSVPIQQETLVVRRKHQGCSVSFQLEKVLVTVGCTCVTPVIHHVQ
Method: as §1

cynomolgus monkey IL-17A [3] = biological target: T4, cynomolgus monkey IL-17A (cynomolgus monkey, UniProt A0A2K5TTB0 24-155); test: as above
T4 construct: biotinylated in the ELISA; also called cyno IL-17; Cyno IL-17A
T4 sequence (A0A2K5TTB0 entry or part of it): as the sequence (Q16552 24-155, chain 1 of 2) above, with T3A, P8S, N34S, I77V, N78K, P104R counted along it
Method: as §1

mouse IL-17A [4] = biological target: T2, mouse IL-17A; test: as above
Method: as §1

human IL-17A [5] = biological target: T5, human IL-17A (human, UniProt Q16552 24-155); test: as above
T5 construct: Recombinant; biotinylated in the ELISA; also called hIL-17; hIL17A
T5 sequence (Q16552 24-155): as the sequence (Q16552 24-155, chain 1 of 2) above
Method: as §1

human IL-17A [6] = biological target: T5, human IL-17A; test: cell-based or functional assay
human IL-17A [7] = biological target: T5, human IL-17A; test: hIL17A ELISA
rat IL-17A [8] = biological target: T1, rat IL-17A; test: SPR (Biacore 3000), antibody captured by anti-Fc, antigen in solution; remark: listed apart in the source
Method: as §1

human IL-17A/F [9] = biological target: T3, human IL-17A/F; test: as above; remark: listed apart in the source
Method: as §1

cynomolgus monkey IL-17A [10] = biological target: T4, cynomolgus monkey IL-17A; test: as above; remark: listed apart in the source
Method: as §1

mouse IL-17A [11] = biological target: T2, mouse IL-17A; test: as above; remark: listed apart in the source
Method: as §1

human IL-17A [12] = biological target: T5, human IL-17A; test: as above; remark: listed apart in the source
Method: as §1

cynomolgus monkey IL-17A [13] = biological target: T4, cynomolgus monkey IL-17A; test: cell-based or functional assay
human IL-17A [14] = biological target: T5, human IL-17A; test: cell-based or functional assay; remark: listed apart in the source

Binder | EC50 (human IL-17A [7]) [nM] | Kd (rat IL-17A [8]) [nM] | koff (rat IL-17A [8]) [s⁻¹] | kon (rat IL-17A [8]) [M⁻¹ s⁻¹] | Kd (human IL-17A/F [9]) [nM] | koff (human IL-17A/F [9]) [s⁻¹] | kon (human IL-17A/F [9]) [M⁻¹ s⁻¹] | Kd (cynomolgus monkey IL-17A [10]) [nM] | koff (cynomolgus monkey IL-17A [10]) [s⁻¹] | kon (cynomolgus monkey IL-17A [10]) [M⁻¹ s⁻¹] | Kd (mouse IL-17A [11]) [nM] | koff (mouse IL-17A [11]) [s⁻¹] | kon (mouse IL-17A [11]) [M⁻¹ s⁻¹] | Kd (human IL-17A [12]) [nM] | koff (human IL-17A [12]) [s⁻¹] | kon (human IL-17A [12]) [M⁻¹ s⁻¹] | Potency (pM), IL-17-driven IL-6 production in HS27 cells (cynomolgus monkey IL-17A [13]) [pM] | Potency (pM), IL-17-driven IL-6 production in HS27 cells (human IL-17A [14]) [pM] | other results
B1 |  |  |  |  |  |  |  |  |  |  |  |  |  |  |  |  |  |  | Kd (rat IL-17A [1]): 0.142 nM; koff (rat IL-17A [1]): 0.000704 s⁻¹; kon (rat IL-17A [1]): 4.95e+06 M⁻¹ s⁻¹; Kd (human IL-17A/F [2]): 0.189 nM; koff (human IL-17A/F [2]): 0.000366 s⁻¹; kon (human IL-17A/F [2]): 1.94e+06 M⁻¹ s⁻¹; Kd (cynomolgus monkey IL-17A [3]): 0.0425 nM; koff (cynomolgus monkey IL-17A [3]): 0.000116 s⁻¹; kon (cynomolgus monkey IL-17A [3]): 2.73e+06 M⁻¹ s⁻¹; Kd (mouse IL-17A [4]): 0.357 nM; koff (mouse IL-17A [4]): 0.00087 s⁻¹; kon (mouse IL-17A [4]): 2.44e+06 M⁻¹ s⁻¹; Kd (human IL-17A [5]): 0.0187 nM; koff (human IL-17A [5]): 6.78e-05 s⁻¹; kon (human IL-17A [5]): 3.63e+06 M⁻¹ s⁻¹; Potency (pM), IL-17-driven IL-6 production in HS27 cells (human IL-17A [6]): 36 pM
B2 | 0.05 | 0.919 | 0.000454 | 494000 | 1.14 | 0.000696 | 609000 | 0.217 | 0.000154 | 711000 | 0.98 | 0.000384 | 392000 | 0.302 | 0.000185 | 612000 | 313 | 264 | 
B3 | 0.1 | 3.77 | 0.000667 | 177000 | 2.11 | 0.00086 | 408000 | 0.773 | 0.000351 | 454000 | 2.21 | 0.000522 | 236000 | 0.524 | 0.000142 | 271000 | 622 | 326 | 
